Positions count from the first letter of the chain named. Each block holds one binder with its values, some of them ahead of it.
Experiments:
[1] = molecular target: T1, 成熟型カニクイザルVEGF-D(Hisタッグ付加、二量体、参考例3) (cynomolgus monkey, UniProt O43915 93-201 (human entry)); experiment: competition cell ELISA, antibody titrated against 2.5 ug/mL cynomolgus VEGF-D on cynomolgus VEGFR-3 CHO cells
T1 construct: also called cynomolgus VEGF-D; not shown: His tag
T1 chain: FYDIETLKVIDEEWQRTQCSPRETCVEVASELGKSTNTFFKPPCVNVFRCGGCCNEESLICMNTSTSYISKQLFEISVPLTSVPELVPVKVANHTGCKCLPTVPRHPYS

[2] = molecular target: T2, 成熟型ヒトVEGF-D(Hisタッグ付加、二量体、参考例3) (human, UniProt O43915 93-201); experiment: competition cell ELISA, antibody titrated against 2.5 ug/mL human VEGF-D on human VEGFR-3 CHO cells
T2 construct: also called human VEGF-D; not shown: His tag
T2 sequence: T1 chain with V103A

[3] = molecular target: T2, 成熟型ヒトVEGF-D(Hisタッグ付加、二量体、参考例3); experiment: competition cell ELISA, inhibition of human VEGF-D binding to human VEGFR-3 CHO cells, against chimeric VE48

B3: ヒト化VE48抗体(H鎖:VE48HA、L鎖:VE48L6) (antibody, human IgG1, kappa, V domains shown)
VH: QVTLKESGPALVKPTQTLTLTCTFSGFSLSTYGMGVGWIRQPPGKALEWLANIWWNDDKYYNPVLRSRLTISKDTSKNQVVLTMTNMDPVDTATYYCVQVTNPFVFWGQGTLVTVSS
VL: DIVMTQTPLSLPVTPGEPASISCRSSQSLVHINGNTYLHWYLQKPGQSPQLLIYKVSNRFSGVPDRFSGSGSGTDFTLKISRVEAEDVGVYFCSQSTHVPWTFGGGTKVEIKR
notes: also called 48HA/48L6; HA/L6
binding result [3]: binds

B4: ヒト化VE199抗体(H鎖:VE199HA、L鎖:VE199LA) (antibody, human IgG1, kappa, V domains shown)
VH: QVQLVQSGPEVKKPGASVKVSCKASGYTFTGYNMHWVRQAPGQGLEWMGYIDPYNGDTYYNQKFQDRVTLTVDKSTSTAYMELSSLRSEDTAVYYCIRAGYYAMDYWGQGTLVTVSS
VL: B3 VL with S96G, W101R
notes: also called VE199HALA
binding result [3]: binds

B5: ヒト化抗体VE48抗体(48HK/48L6) (antibody, V domains shown)
VH: B3 VH with Q109E
VL: B3 VL
notes: The light chain is VE48L6; also called VE48HK/VE48L6
binding result [3]: binds

B6: ヒト化抗体VE48抗体(48HH/48L6) (antibody, V domains shown)
VH: B3 VH with N56E
VL: B3 VL
notes: The light chain is VE48L6; also called VE48HH/VE48L6
binding result [3]: binds

B7: ヒト化抗体VE48抗体(48H16/48L6) (antibody, V domains shown)
VH: B3 VH with T31D, Q109E
VL: B3 VL
notes: The light chain is VE48L6; also called VE48H16/VE48L6
binding result [3]: binds

B9: ヒト化抗体VE48抗体(48HJ/48L6) (antibody, V domains shown)
VH: B3 VH with R66Q, S67D
VL: B3 VL
notes: The light chain is VE48L6; also called VE48HJ/VE48L6
binding result [3]: binds

B10: ヒト化抗体VE48抗体(48H18/48L6) (antibody, V domains shown)
VH: B3 VH with T31D, N56E, Q109E
VL: B3 VL
notes: The light chain is VE48L6; also called VE48H18/VE48L6
binding result [3]: binds

B11: ヒト化抗体VE48抗体(48HI/48L6) (antibody, V domains shown)
VH: B3 VH with T31D
VL: B3 VL
notes: The light chain is VE48L6; also called VE48HI/VE48L6
binding result [3]: binds

More lines, now with the values ahead:

binding result [1]: binds
binding result [2]: binds
B1: VE199キメラ抗体 (antibody, human IgG1, V domains shown)
VH: EVQLQQSGPELVKPGASVKMSCKASGYSFTGYNMHWVKQSHGRSLEWIGYIDPYNGDTYYNQKFRDKATLTVDKSSSTAYMQLNSLTSEDSALYYCIRAGYYAMDYWGQGTSVTVSS
VL: DIVMTQTPLSLPVSLGDQASISCRSSQSLVHINGNTYLHWYLQKPGQSPKLLIYKVSNRFSGVPDRFSGSGSGTDFTLKISRVEAEDLGVYFCSQGTHVPRTFGGGTKLEIN
notes: also called キメラVE199; chimeric VE199

binding result [2]: binds
B2: VE29キメラ抗体 (antibody, human IgG1, V domains shown)
VH: DVQLQESGPGLVKPSQTVSLTCTVTGYSITNRYHWWNWIRQVSGNKLEWIGYISYSGDTVSNPSLKSRISITRDTSKNQLFLQLNSVTTEDIATYYCARDGGIYFDYWGQGTTLTVSS
VL: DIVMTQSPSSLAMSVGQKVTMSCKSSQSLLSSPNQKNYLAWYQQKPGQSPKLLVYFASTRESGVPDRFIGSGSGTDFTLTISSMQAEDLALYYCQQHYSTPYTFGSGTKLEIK
notes: also called キメラVE29; chimeric VE29

binding result [3]: binds
B8: ヒト化抗体VE48抗体(48H17/48L6) (antibody, V domains shown)
VH: B3 VH with N56E, Q109E
VL: B3 VL
notes: The light chain is VE48L6; also called VE48H17/VE48L6

binding result [3]: binds
B12: HA/L14(H鎖:VE48HA、L鎖:VE48L14) (antibody, human IgG1, kappa, V domains shown)
VH: B3 VH
VL: B3 VL with N33K
notes: also called 48HA/48L14

Source: JP2011219380A (dated 2011)
